Data taken from PMC12065913.

Experiments:
[1] = biological target: AceE fragment 5, stalled nascent chain (E. coli); test: optical tweezers with two-color confocal single-molecule fluorescence; single stalled ribosome-nascent chain complexes tethered between beads by DNA handles; 100 nM labelled TF and 100 nM labelled DnaK in solution, with or without 17 nM DnaJ and 10 nM GrpE; TICO buffer, 1 mM ATP and regeneration system
[2] = biological target: AceE fragment 2, stalled nascent chain (E. coli) (UniProt P0AFG8); test: as above
UniProt P0AFG8, sequence (P0AFG8 1-200): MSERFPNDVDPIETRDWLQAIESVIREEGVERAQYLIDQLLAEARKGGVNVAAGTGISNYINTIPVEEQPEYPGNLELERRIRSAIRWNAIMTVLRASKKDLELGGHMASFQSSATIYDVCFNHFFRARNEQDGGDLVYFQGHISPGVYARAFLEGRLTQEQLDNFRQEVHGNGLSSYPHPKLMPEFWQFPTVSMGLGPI

Substance | residence time (nascent chains folded by more than one-third) [1] [s] | residence time (nascent chains less than one-third folded) [1] [s] | binding time (more folded nascent chains) [2] [s]
DnaK-290C, ATTO532 labelled (from UniProt P0A6Y8 1-638) (natural protein) | > 10 | < 5 | 
TF-99C, ATTO647N labelled (from UniProt P0A850 1-432) (natural protein) |  |  | > 50
